Test results reported in patent US20200299373A1.
One block for each binder: values may come before it.

Tests used:
[1] = target: recombinant human FAM19A5 protein (His-tagged) (human) (UniProt Q7Z5A7); assay: ELISA on coated FAM19A5, as in Example 6
[2] = target: recombinant human FAM19A5 protein (His-tagged) (human) (UniProt Q7Z5A7); assay: ELISA on N'-Term His FAM19A5, fit of the titration (OD 492 nm); R2 printed 0.8703
F2-03-BSA (human) = target: T1, F2-03-BSA (human); assay: ELISA on mutant F2 peptide-BSA #3; conditions: remark: other sources report otherwise
T1 chain: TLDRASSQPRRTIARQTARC

[3] = target: recombinant human FAM19A5 protein (His-tagged) (human) (UniProt Q7Z5A7); assay: two-site sandwich ELISA; capture antibody 2-13; S/N = O.D. at 10 ng/mL antigen / O.D. at 0 ng/mL; O.D. in column 0 printed 0.22
[4] = target: recombinant human FAM19A5 protein (His-tagged) (human) (UniProt Q7Z5A7); assay: two-site sandwich ELISA; capture antibody 13B4; S/N = O.D. at 10 ng/mL antigen / O.D. at 0 ng/mL; O.D. in column 0 printed 0.22
[5] = target: recombinant human FAM19A5 protein (His-tagged) (human) (UniProt Q7Z5A7); assay: two-site sandwich ELISA; capture antibody 3-2; biotinylated detection antibody P2-A03; antigen in ng/mL
[6] = target: recombinant human FAM19A5 protein (His-tagged) (human) (UniProt Q7Z5A7); assay: ELISA on N'-Term His FAM19A5, fit of the titration (OD 492 nm); R2 printed 0.9746
[7] = target: recombinant human FAM19A5 protein (His-tagged) (human) (UniProt Q7Z5A7); assay: two-site sandwich ELISA; capture antibody P2-F11; biotinylated detection antibody P2-A03; antigen in ng/mL
[8] = target: recombinant human FAM19A5 protein (His-tagged) (human) (UniProt Q7Z5A7); assay: two-site sandwich ELISA; capture antibody 2-13; biotinylated detection antibody P2-A03; antigen in ng/mL
[9] = target: recombinant human FAM19A5 protein (His-tagged) (human) (UniProt Q7Z5A7); assay: two-site sandwich ELISA; capture antibody 3-2; S/N = O.D. at 10 ng/mL antigen / O.D. at 0 ng/mL; O.D. in column 0 printed 0.16
[10] = target: recombinant human FAM19A5 protein (His-tagged) (human) (UniProt Q7Z5A7); assay: two-site sandwich ELISA; capture antibody P2-F11; S/N = O.D. at 10 ng/mL antigen / O.D. at 0 ng/mL; O.D. in column 0 printed 0.14
[11] = target: recombinant human FAM19A5 protein (His-tagged) (human) (UniProt Q7Z5A7); assay: two-site sandwich ELISA; capture antibody 13B4; biotinylated detection antibody P2-A03; antigen in ng/mL
[12] = target: recombinant human FAM19A5 protein (His-tagged) (human) (UniProt Q7Z5A7); assay: two-site sandwich ELISA; capture antibody 1-65; S/N = O.D. at 10 ng/mL antigen / O.D. at 0 ng/mL; O.D. in column 0 printed 0.15
[13] = target: recombinant human FAM19A5 protein (His-tagged) (human) (UniProt Q7Z5A7); assay: two-site sandwich ELISA; capture antibody 1-65; biotinylated detection antibody P2-A03; antigen in ng/mL
[14] = target: recombinant human FAM19A5 protein (His-tagged) (human) (UniProt Q7Z5A7); assay: ELISA on N'-Term His FAM19A5, fit of the titration; R2 printed 0.9746
[15] = target: recombinant human FAM19A5 protein (His-tagged) (human) (UniProt Q7Z5A7); assay: ELISA on N'-Term His FAM19A5, fit of the titration (OD 492 nm); R2 printed 0.9692
[16] = target: recombinant human FAM19A5 protein (His-tagged) (human) (UniProt Q7Z5A7); assay: two-site sandwich ELISA; capture antibody 3-2; S/N = O.D. at 10 ng/mL antigen / O.D. at 0 ng/mL; O.D. in column 0 printed 0.13
[17] = target: recombinant human FAM19A5 protein (His-tagged) (human) (UniProt Q7Z5A7); assay: two-site sandwich ELISA; capture antibody 13B4; S/N = O.D. at 10 ng/mL antigen / O.D. at 0 ng/mL; O.D. in column 0 printed 0.18
[18] = target: recombinant human FAM19A5 protein (His-tagged) (human) (UniProt Q7Z5A7); assay: ELISA on N'-Term His FAM19A5, fit of the titration; R2 printed 0.9692
[19] = target: recombinant human FAM19A5 protein (His-tagged) (human) (UniProt Q7Z5A7); assay: two-site sandwich ELISA; capture antibody 2-13; S/N = O.D. at 10 ng/mL antigen / O.D. at 0 ng/mL; O.D. in column 0 printed 0.29
[20] = target: recombinant human FAM19A5 protein (His-tagged) (human) (UniProt Q7Z5A7); assay: two-site sandwich ELISA; capture antibody 13B4; biotinylated detection antibody P2-F11; antigen in ng/mL
[21] = target: recombinant human FAM19A5 protein (His-tagged) (human) (UniProt Q7Z5A7); assay: two-site sandwich ELISA; capture antibody 2-13; biotinylated detection antibody P2-F11; antigen in ng/mL
[22] = target: recombinant human FAM19A5 protein (His-tagged) (human) (UniProt Q7Z5A7); assay: two-site sandwich ELISA; capture antibody 1-65; S/N = O.D. at 10 ng/mL antigen / O.D. at 0 ng/mL; O.D. in column 0 printed 0.12
[23] = target: recombinant human FAM19A5 protein (His-tagged) (human) (UniProt Q7Z5A7); assay: two-site sandwich ELISA; capture antibody P2-A03; biotinylated detection antibody P2-F11; antigen in ng/mL
[24] = target: recombinant human FAM19A5 protein (His-tagged) (human) (UniProt Q7Z5A7); assay: two-site sandwich ELISA; capture antibody P2-A03; S/N = O.D. at 10 ng/mL antigen / O.D. at 0 ng/mL; O.D. in column 0 printed 0.09
[25] = target: recombinant human FAM19A5 protein (His-tagged) (human) (UniProt Q7Z5A7); assay: two-site sandwich ELISA; capture antibody 3-2; biotinylated detection antibody P2-F11; antigen in ng/mL
[26] = target: recombinant human FAM19A5 protein (His-tagged) (human) (UniProt Q7Z5A7); assay: two-site sandwich ELISA; capture antibody 1-65; biotinylated detection antibody P2-F11; antigen in ng/mL

Kd [1]: 0.17 nM
Bmax [2]: 2.94
O.D (492nm) (F2-03-BSA (human)): 0.055
B1: anti-FAM19A5 antibody 1-28 (antibody, V domains shown)
VH: AVTLDESGGGLQTPGGALSLVCKASGFDFSDYGMGWVRQAPGKGLEWVAAIRSDGSNPSYGSAVKGRATISKDNGRSTVRLQLNNLRAEDTATYYCAKDGNGYCALDAYRSGGYSCGVYPGSIDAWGHGTEVIVSS
VL: ALTQPSSVSANLEGTVEITCSGSGYGYGWYQQKSPGSAPVTVIYQNDKRPSDIPSRFSGSKSGSTGTLTITGVQVEDEAVYYCGSEDSSTLAGIFGAGTTLTVL

S/N [3]: 7.8
S/N [4]: 1
O.D., antigen 100 [5]: 1.91
O.D., antigen column 10 [5]: 1.66
Bmax [6]: 3.37
O.D., antigen 100 [7]: 0.15
O.D., antigen column 10 [7]: 0.15
O.D., antigen 100 [8]: 1.88
O.D., antigen column 10 [8]: 1.72
S/N [9]: 10
S/N [10]: 1.1
O.D., antigen 100 [11]: 0.27
O.D., antigen column 10 [11]: 0.22
S/N [12]: 1
O.D., antigen 100 [13]: 0.16
O.D., antigen column 10 [13]: 0.15
Kd [14]: 0.61 nM
B2: anti-FAM19A5 antibody P2-A03 (antibody, V domains shown)
VH: QSVEESGGRLVTPGTPLTLTCTVSGFSLNNYDMSWVRQAPGKGLEYIGFMDTDGSAYYATWAKGRFTISRTSTTVDLKMTSPTTEDTATYFCARRGSSYYGGIDIWGPGTPVTVSL
VL: ELDLTQTPASVSEPVGGTVTIKCQASQSIGGNLAWYQQKPGQPPKLLIYRASTLASGVPSRFKGSGSGTDFTLTISDLECADAATYYCQSPAYDPAAYVGNAFGGGTELEILR
modifications: Biotinylated when used as detection antibody in FIG. 6B.

Bmax [15]: 3.26
S/N [16]: 13.9
S/N [17]: 1
Kd [18]: 0.41 nM
S/N [19]: 7
O.D., antigen 100 [20]: 0.2
O.D., antigen column 10 [20]: 0.18
O.D., antigen 100 [21]: 1.83
O.D., antigen column 10 [21]: 2.04
S/N [22]: 1.7
O.D., antigen 100 [23]: 0.09
O.D., antigen column 10 [23]: 0.09
S/N [24]: 1
O.D., antigen 100 [25]: 2.02
O.D., antigen column 10 [25]: 1.81
O.D., antigen 100 [26]: 1.25
O.D., antigen column 10 [26]: 0.2
B3: anti-FAM19A5 antibody P2-F11 (antibody, V domains shown)
VH: QEQLVESGGRLVTPGTTLTLTCTVSGFSLSSYGVSWVRQAPGKGLEWIGYIANNYNPHYASWAKGRFTISKTSSTTVDLKMTSLTTEDTATYFCARDNYGMDPWGPGTLVTVSS
VL: ELDLTQTPSSVSAAVGGTVTINCQASQSVYNNKNLAWYQQKPGQPPKLLIYAASTLASGVSSRFKGSGSGTQFTLTISDVQCDDAATYYCQGEFSCSSADCNAFGGGTELEILR
modifications: Biotinylated when used as detection antibody in FIG. 6B.
